{"source": "the supplement of paper PMC9732359", "note": "± gives the uncertainty stated by the source.", "data": [{"assay": "protein stability index of a GFP-peptide fusion (yeast GPS) (PSI 1-4); higher = more stable; sorted into four equal gates, so the index is relative within each strain", "conditions": "pdr5∆", "procedure,_shortened": "(§1)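 Each library plasmid carries Cherry plus GFP with a tiled 17-residue yeast protein peptide fused downstream, and the pooled library was carried in yeast. Mid-log cultures in leucine-free medium were sorted into four equal gates by GFP/Cherry ratio. Reads from Illumina sequencing of PCR-amplified plasmids from each gate were assigned to strains by barcodes. Per peptide, the protein stability index was computed as the summed products of gate read frequency and gate number.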", "values": [{"sequence": "DLAERASELDESKDSIQ [SMC3]", "protein stability index": "3.1 ± 0.09"}]}, {"assay": "protein stability index of a GFP-peptide fusion (yeast GPS) (PSI 1-4); higher = more stable; sorted into four equal gates, so the index is relative within each strain", "conditions": "san1∆", "procedure,_shortened": "as §1", "values": [{"sequence": "ATGHRVLIFFQMTQIMD [SNF2]", "protein stability index": "2.72 ± 0.094"}, {"sequence": "ATGNESQDATKVDATPE [YLR335W/NUP2]", "protein stability index": "3.04 ± 0.066"}, {"sequence": "ATHLPKDNVEHLVMRAI [RPN9]", "protein stability index": "2.77 ± 0.067"}, {"sequence": "ATPQEAQFYLGKRIAYV [RPL33B]", "protein stability index": "1.76 ± 0.076"}, {"sequence": "ATSKTSEMLAKYSDILL [CDC53]", "protein stability index": "2.99 ± 0.1"}, {"sequence": "ATTQDQVASIIESFVEL [NUT2]", "protein stability index": "2.17 ± 0.15"}, {"sequence": "ATYSNEFKCMSVITAQQ [YGL100W/SEH1]", "protein stability index": "1.46 ± 0.085"}, {"sequence": "AVALAASDLVLIVIDVV [SNU114]", "protein stability index": "2.75 ± 0.094"}, {"sequence": "AVAVGNVEMEEDVLVNQ [RPL1A]", "protein stability index": "1.17 ± 0.11"}, {"sequence": "AVDKVISGYKKFSSTSR [RPT1]", "protein stability index": "3.21 ± 0.16"}, {"sequence": "AVHVTVRGPKAEEILER [RPL11A]", "protein stability index": "2.92 ± 0.12"}, {"sequence": "AVKNKYNVGKQLSNEII [PRP28]", "protein stability index": "2.17 ± 0.088"}, {"sequence": "AVKYGLNHVVSLIENKK [RPL8B]", "protein stability index": "2.26 ± 0.089"}, {"sequence": "AVPLQIVSPQSNKPCMG [RPO21]", "protein stability index": "2.03 ± 0.065"}, {"sequence": "AVPRDELGRSNYGMIAI [FAS1]", "protein stability index": "3.28 ± 0.071"}, {"sequence": "AVRLILPGELAKHAVSE [HTB1]", "protein stability index": "1.52 ± 0.17"}, {"sequence": "AWRTLVGVSHTNEEVRN [CYT1]", "protein stability index": "1.92 ± 0.15"}, {"sequence": "AYKFEEVSKDLIAVYYS [RPB8]", "protein stability index": "3.32 ± 0.045"}, {"sequence": "AYRTDVIQALGGIETIL [PRP8]", "protein stability index": "1.46 ± 0.13"}, {"sequence": "CAECSSKLSLSRTDAVR [RPC10]", "protein stability index": "2.51 ± 0.061"}, {"sequence": "CAEGIFVVKLDTVDRLI [GAL11]", "protein stability index": "3.02 ± 0.13"}, {"sequence": "CAINSKSRGSDLQYLGE [RRP6]", "protein stability index": "2.7 ± 0.069"}, {"sequence": "CDSYLDADKELSFEINV [BRR2]", "protein stability index": "2.92 ± 0.057"}, {"sequence": "CEAAVEISKKDFVRKGG [SIR3]", "protein stability index": "3.22 ± 0.068"}, {"sequence": "CELLKLTNEDPPGLMYL [SSN2]", "protein stability index": "3.26 ± 0.12"}, {"sequence": "CELQVETYGSMEMSEKI [RPN5]", "protein stability index": "2.71 ± 0.071"}, {"sequence": "CESCSTVLCTPTGGKAK [RPS27B]", "protein stability index": "2.07 ± 0.081"}, {"sequence": "CGAGVFLANHKDRLYCG [RPS31]", "protein stability index": "1.06 ± 0.21"}, {"sequence": "CGAWEPAITIEKLKQFS [SIR3]", "protein stability index": "2.58 ± 0.13"}, {"sequence": "CGFWQPAWRVWLNFLRG [PRP8]", "protein stability index": "1.62 ± 0.13"}, {"sequence": "CHDELKALPMLEQVEFE [MED4]", "protein stability index": "2.7 ± 0.21"}, {"sequence": "CILRFLQLPIEDKFLYG [SWI3]", "protein stability index": "1.18 ± 0.19"}, {"sequence": "CKDDVQLQKILESLKPI [MTW1]", "protein stability index": "2.79 ± 0.06"}, {"sequence": "CKEVGITAVHVKIRATG [RPS14A]", "protein stability index": "1.81 ± 0.085"}, {"sequence": "CKLFLADVFTDDDLFET [YCG1]", "protein stability index": "3.03 ± 0.048"}, {"sequence": "CKSLISENEDTKDLLSK [CSE2]", "protein stability index": "3.1 ± 0.066"}, {"sequence": "CKVVAEMIRGRSPEEIR [SKP1]", "protein stability index": "2.21 ± 0.29"}, {"sequence": "CLEDPEKPFNENRFQDT [POP4]", "protein stability index": "2.64 ± 0.24"}, {"sequence": "CLFENDLQRLKPLGLDR [ITC1]", "protein stability index": "3.15 ± 0.065"}, {"sequence": "CNGSALVEARSLGHQTS [MTR3]", "protein stability index": "3.1 ± 0.22"}, {"sequence": "CSFITQDKMFVSNPIRK [FAS1]", "protein stability index": "1.25 ± 0.11"}, {"sequence": "CSRIIKIDKPIRTQVNT [RGR1]", "protein stability index": "2.09 ± 0.059"}, {"sequence": "CTLTADGAYALSASWDK [ASC1]", "protein stability index": "3.19 ± 0.075"}, {"sequence": "CVKAIEALFQSRPDILS [YCG1]", "protein stability index": "3.03 ± 0.082"}, {"sequence": "CVQLIKCLVEKSICFEN [SWI1]", "protein stability index": "2.28 ± 0.17"}, {"sequence": "CVRVQLIKNGKKVTAFV [RPS23A]", "protein stability index": "3.16 ± 0.13"}, {"sequence": "CVVSTDSTNLSDDAAQF [ECM29]", "protein stability index": "1.69 ± 0.08"}, {"sequence": "CVYVPNFNASLQLTTNT [SNM1]", "protein stability index": "2.52 ± 0.047"}, {"sequence": "CYFRDFEYCRIDGSTSH [ISW2]", "protein stability index": "2.48 ± 0.069"}, {"sequence": "CYVGLLTAIPILLEPIY [SNU114]", "protein stability index": "1.28 ± 0.064"}, {"sequence": "DACPLDNQPWQLARCGR [HRT1]", "protein stability index": "2.03 ± 0.077"}, {"sequence": "DADEKSSNLYETIIEAD [YJR042W/NUP85]", "protein stability index": "2.88 ± 0.057"}, {"sequence": "DADGDIDMGEDKENVPV [DPB4]", "protein stability index": "3.01 ± 0.15"}, {"sequence": "DALQDVEESSEKKQKTE [DPB4]", "protein stability index": "3.21 ± 0.048"}, {"sequence": "DANRNANNIVNIVSDAG [GRR1]", "protein stability index": "2.99 ± 0.041"}, {"sequence": "DATFAGHSLGEYAALAS [FAS1]", "protein stability index": "2.83 ± 0.11"}, {"sequence": "DCENFFNYVQECPAIPI [YJL039C/NUP192]", "protein stability index": "3.23 ± 0.069"}, {"sequence": "DDDAVRREVQIQLQEFL [NSL1]", "protein stability index": "3.36 ± 0.073"}, {"sequence": "DDDDNNESSSNTTVISD [DIS3]", "protein stability index": "2.97 ± 0.049"}, {"sequence": "DDDKKPDDDKIVPLTEG [RPT1]", "protein stability index": "3.16 ± 0.12"}, {"sequence": "DDDLFETLVLSYFSPIN [YCG1]", "protein stability index": "1.36 ± 0.093"}, {"sequence": "DDDNSNVDYYNVAHRIK [SNF2]", "protein stability index": "3.06 ± 0.031"}, {"sequence": "DDEEYDYNDVEVNSKKK [BRR2]", "protein stability index": "3.32 ± 0.053"}, {"sequence": "DDFDMLFGENDTSTQAY [NUT1]", "protein stability index": "3.51 ± 0.053"}, {"sequence": "DDFLSKKRKAGRPRGRP [SNF2]", "protein stability index": "2.96 ± 0.2"}, {"sequence": "DDIINNDEPSHKKIKVA [SIR2]", "protein stability index": "2.64 ± 0.041"}, {"sequence": "DDLERLKKIRAHRGIRH [RPS18A]", "protein stability index": "1.21 ± 0.18"}, {"sequence": "DDRDHFGKKRLDLAGPL [RPB2]", "protein stability index": "3.2 ± 0.21"}, {"sequence": "DDRYGYQLYTSNPSGNY [PRE9]", "protein stability index": "3.06 ± 0.065"}, {"sequence": "DDSFSLLRIQMLLCVSY [PCI8]", "protein stability index": "2.08 ± 0.052"}, {"sequence": "DDVRRAAVIALGFVLLR [RPN2]", "protein stability index": "1.99 ± 0.13"}, {"sequence": "DDVVVLTGEAEIEQPVT [FAS1]", "protein stability index": "2.85 ± 0.13"}, {"sequence": "DDYYKEIIGGGSKSASK [ISW2]", "protein stability index": "3 ± 0.09"}, {"sequence": "DEEMLTSCTIPKAVVDH [GAL11]", "protein stability index": "2.44 ± 0.12"}, {"sequence": "DEEMTISQKLHDSILHS [RRP43]", "protein stability index": "2.82 ± 0.03"}, {"sequence": "DEEYPVKVKVSYQKLLK [PRP8]", "protein stability index": "1.91 ± 0.15"}, {"sequence": "DEFYINVDKNLNEIKEH [RPN14]", "protein stability index": "2.73 ± 0.062"}, {"sequence": "DEIDAALDFRNVSIVAN [SMC4]", "protein stability index": "2.03 ± 0.076"}, {"sequence": "DEPDEQGNPKKRPGKLS [CYT1]", "protein stability index": "3.24 ± 0.16"}, {"sequence": "DESTIKRIKPNTEITQK [ECM29]", "protein stability index": "2.95 ± 0.046"}, {"sequence": "DFDDSTAQEINFKMLVL [IRR1]", "protein stability index": "2.67 ± 0.058"}, {"sequence": "DFDLLNKTLTFETETEV [FAS1]", "protein stability index": "3.44 ± 0.045"}, {"sequence": "DFIDTATRHVLMRQGVL [RPS3]", "protein stability index": "3.38 ± 0.054"}, {"sequence": "DFIKFDQIAVCEISGSI [BRN1]", "protein stability index": "2.12 ± 0.14"}, {"sequence": "DFSARTVISGDPNLELD [RPO21]", "protein stability index": "2.58 ± 0.15"}, {"sequence": "DFYVVMNRPGARVTRRK [RPL11A]", "protein stability index": "3.28 ± 0.061"}, {"sequence": "DGEGKVDSISLHKIFYK [YCG1]", "protein stability index": "3.13 ± 0.048"}, {"sequence": "DGGLFTLFVRDQDSAVV [QCR2]", "protein stability index": "3.25 ± 0.059"}, {"sequence": "DGHLQFLNDVIPTTKNL [DLS1]", "protein stability index": "2.8 ± 0.072"}, {"sequence": "DGSQQNLQQDKTNFQDV [REC8]", "protein stability index": "3.42 ± 0.068"}, {"sequence": "DHKRFIVFHNEFSEHTF [DIS3]", "protein stability index": "2.85 ± 0.046"}, {"sequence": "DIFSNLSSDDLLGKESF [YCS4]", "protein stability index": "2.95 ± 0.044"}, {"sequence": "DILQITKKPLMVKNVKP [SIR4]", "protein stability index": "2.55 ± 0.069"}, {"sequence": "DILSQILYGLVDKGAIM [YJL039C/NUP192]", "protein stability index": "2.95 ± 0.19"}, {"sequence": "DISATQLPKQLWRNFCR [ITC1]", "protein stability index": "2.71 ± 0.035"}, {"sequence": "DIWSISKKRQAEKLVPL [YML031W/NDC1]", "protein stability index": "2.35 ± 0.073"}, {"sequence": "DKDSTKEVASLPNKSTI [FAS2]", "protein stability index": "3.02 ± 0.072"}, {"sequence": "DKELRKTKFQYKFLDQN [YIL149C/MLP2]", "protein stability index": "2.96 ± 0.064"}, {"sequence": "DLAERASELDESKDSIQ [SMC3]", "protein stability index": "2.83 ± 0.17"}]}, {"assay": "protein stability index of a GFP-peptide fusion (yeast GPS) (PSI 1-4); higher = more stable; sorted into four equal gates, so the index is relative within each strain", "conditions": "ubr1∆", "procedure,_shortened": "as §1", "values": [{"sequence": "ATGHRVLIFFQMTQIMD [SNF2]", "protein stability index": "2.64 ± 0.13"}]}]}
